Biological target: recombinant hCD25 (human IL-2Rα) (human) (UniProt P01589)
Sequence of UniProt P01589 (P01589 22-240): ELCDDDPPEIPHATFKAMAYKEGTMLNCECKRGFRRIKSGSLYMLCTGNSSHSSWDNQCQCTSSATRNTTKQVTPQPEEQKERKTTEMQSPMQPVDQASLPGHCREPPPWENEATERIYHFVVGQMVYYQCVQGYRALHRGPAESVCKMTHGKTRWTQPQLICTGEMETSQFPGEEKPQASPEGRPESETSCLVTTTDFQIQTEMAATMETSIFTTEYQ

Sequence of NARA1leukin (P60568 whole entry, looked up): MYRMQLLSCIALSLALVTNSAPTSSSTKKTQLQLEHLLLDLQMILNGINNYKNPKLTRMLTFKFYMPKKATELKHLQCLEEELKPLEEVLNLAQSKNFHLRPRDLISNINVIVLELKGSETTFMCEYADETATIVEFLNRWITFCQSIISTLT

fold decrease in pSTAT5 in human CD4+ CD25+ Treg cells (PBMCs, 15 min at 37 °C); stimulation by NARA1leukin compared to hIL-2/NARA1 complexes: 30 fold
Substance: NARA1leukin (from UniProt P60568 97-153; P60568 22-96)
